The record followed here is the supplement of paper PMC10567573.

B1: TRIB1 (parent)
chain: EIGTSDQIVPEYQEDSDISSFFC
B2: FCHO1 (parent)
chain: DKLALCHLELTRKLQDLIKDVLRY
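Note: lentivirally expressed fusions sorted by FACS into six bins by GFP to DsRed ratio, PSI derived from sequencing read proportions per bin multiplied by bin number.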

In one data set the parent is B1. Description: protein stability index of a GFP-peptide fusion (GPS, HEK-293T) (PSI 1-6); higher = more stable. The note with it: c terminus: native.
For EIGTSDQIVPEYQEDSDISSFCC, the protein stability index amounted to 3.45. Consider EIGTSDQIVPEYQEDSDISSFVC, for which the protein stability index turned out to be 3.88. Turning to EIGTSDQIVPEYQEDSDISSFKC, the protein stability index is 5.29.

For the variant EIGTSDQIVPEYQEDSDISSFTC, the protein stability index was 4.48.

As for EIGTSDQIVPEYQEDSDISSFGC, the protein stability index was determined as 4.79. The same measure, in the same setting: the same measure for EIGTSDQIVPEYQEDSDISSFMC: 3.16; for EIGTSDQIVPEYQEDSDISSFIC: 4.03; for EIGTSDQIVPEYQEDSDISSFAC: 4.11. On the same count and under the same terms, as for EIGTSDQIVPEYQEDSDISSFEC, the figure is 4.3; as for EIGTSDQIVPEYQEDSDISSFWC, 1.98; as for EIGTSDQIVPEYQEDSDISSFPC, 4.55. EIGTSDQIVPEYQEDSDISSFYC: the protein stability index was 2.03.

As to EIGTSDQIVPEYQEDSDISSFRC, the protein stability index was 4.7.

For EIGTSDQIVPEYQEDSDISSFQC, the protein stability index is 4.82.

Take EIGTSDQIVPEYQEDSDISSFNC: the protein stability index is 4.54. As for EIGTSDQIVPEYQEDSDISSFLC, the protein stability index was determined as 3.36. Consider EIGTSDQIVPEYQEDSDISSFHC, for which the protein stability index amounted to 4.3. With EIGTSDQIVPEYQEDSDISSFSC, the protein stability index was 4.48. With EIGTSDQIVPEYQEDSDISSFDC, the protein stability index was 3.86. For the variant EIGTSDQIVPEYQEDSDISSNFC, the protein stability index stood at 4.7. For the variant EIGTSDQIVPEYQEDSDISSAFC, the protein stability index is 3.98.

Consider EIGTSDQIVPEYQEDSDISSDFC, for which the protein stability index was determined as 3.9. Still for that read-out and setting: as for EIGTSDQIVPEYQEDSDISSEFC, the figure is 4.43; as for EIGTSDQIVPEYQEDSDISSIFC, 3.59.

Regarding EIGTSDQIVPEYQEDSDISSSFC, the protein stability index turned out to be 4.08. On the same count and under the same terms, as for EIGTSDQIVPEYQEDSDISSCFC, the figure is 3.5; as for EIGTSDQIVPEYQEDSDISSMFC, 3.85; as for EIGTSDQIVPEYQEDSDISSPFC, 4.6.

For EIGTSDQIVPEYQEDSDISSKFC, the protein stability index worked out at 4.67. For EIGTSDQIVPEYQEDSDISSTFC, the protein stability index stood at 4.78. Turning to EIGTSDQIVPEYQEDSDISSWFC, the protein stability index was found to be 2.89. For the variant EIGTSDQIVPEYQEDSDISSQFC, the protein stability index was 4.23. Still for that read-out and setting: the same measure for EIGTSDQIVPEYQEDSDISSLFC: 3.45; for EIGTSDQIVPEYQEDSDISSHFC: 4.58; for EIGTSDQIVPEYQEDSDISSVFC: 3.89.

Consider EIGTSDQIVPEYQEDSDISSGFC, for which the protein stability index was found to be 3.97. EIGTSDQIVPEYQEDSDISSRFC: the protein stability index is 3.64. For EIGTSDQIVPEYQEDSDISSYFC, the protein stability index amounted to 2.64. For the variant EIGTSDQIVPEYQEDSDISSFFL, the protein stability index was found to be 2.9. The same measure, in the same setting: as for EIGTSDQIVPEYQEDSDISSFFQ, the figure is 3.76. Consider EIGTSDQIVPEYQEDSDISSFFY, for which the protein stability index was 2.26.

On to EIGTSDQIVPEYQEDSDISSFFR, for which the protein stability index was 4.18. Still for that read-out and setting: as for EIGTSDQIVPEYQEDSDISSFFP, the figure is 3.44; as for EIGTSDQIVPEYQEDSDISSFFW, 1.95; as for EIGTSDQIVPEYQEDSDISSFFF, 2.29. On the same count and under the same terms, the same measure for EIGTSDQIVPEYQEDSDISSFFK: 4.49.

Regarding EIGTSDQIVPEYQEDSDISSFFM, the protein stability index turned out to be 1.73. For the variant EIGTSDQIVPEYQEDSDISSFFH, the protein stability index is 3.65. For the variant EIGTSDQIVPEYQEDSDISSFFD, the protein stability index is 2.51. On to EIGTSDQIVPEYQEDSDISSFFA, for which the protein stability index was 3.08. The same measure, in the same setting: as for EIGTSDQIVPEYQEDSDISSFFV, the figure is 2.77. For EIGTSDQIVPEYQEDSDISSFFI, the protein stability index came out at 2.67. EIGTSDQIVPEYQEDSDISSFFG: the protein stability index was determined as 3.67. The same measure, in the same setting: the same measure for EIGTSDQIVPEYQEDSDISSFFT: 2.1; for EIGTSDQIVPEYQEDSDISSFFN: 3.73. For EIGTSDQIVPEYQEDSDISSFFE, the protein stability index came out at 2.94. Still for that read-out and setting: the same measure for EIGTSDQIVPEYQEDSDISSFFS: 2.8; for EIGTSDQIVPEYQEDSDISKFFC: 4.34; for EIGTSDQIVPEYQEDSDISHFFC: 3.57. As to EIGTSDQIVPEYQEDSDISMFFC, the protein stability index came out at 2.62.

With EIGTSDQIVPEYQEDSDISDFFC, the protein stability index was found to be 2.3. The same measure, in the same setting: the same measure for EIGTSDQIVPEYQEDSDISCFFC: 2.49; for EIGTSDQIVPEYQEDSDISWFFC: 2.35; for EIGTSDQIVPEYQEDSDISIFFC: 2.32.

On to EIGTSDQIVPEYQEDSDISGFFC, for which the protein stability index was 3.23. Same read-out and setting: as for EIGTSDQIVPEYQEDSDISRFFC, the figure is 3.89.

Consider EIGTSDQIVPEYQEDSDISVFFC, for which the protein stability index was found to be 2.53. The same measure, in the same setting: as for EIGTSDQIVPEYQEDSDISLFFC, the figure is 1.79; as for EIGTSDQIVPEYQEDSDISPFFC, 3.44; as for EIGTSDQIVPEYQEDSDISEFFC, 2.37. As for EIGTSDQIVPEYQEDSDISFFFC, the protein stability index was 2.81.

As for EIGTSDQIVPEYQEDSDISAFFC, the protein stability index was determined as 3.2. On to EIGTSDQIVPEYQEDSDISYFFC, for which the protein stability index worked out at 2.42.

Take EIGTSDQIVPEYQEDSDISQFFC: the protein stability index worked out at 3.21. As to EIGTSDQIVPEYQEDSDISNFFC, the protein stability index is 2.83. For the variant EIGTSDQIVPEYQEDSDISTFFC, the protein stability index turned out to be 3.07.

In another data set the parent is B2. Described as above. To be noted: c terminus: a fixed tail appended.
For the variant DKLALCHLGLTRKLQDLIKDVLRY, the protein stability index came out at 2.87. Same read-out and setting: as for DKLALCHLILTRKLQDLIKDVLRY, the figure is 2.67; as for DKLALCHLPLTRKLQDLIKDVLRY, 3.31; as for DKLALCHLQLTRKLQDLIKDVLRY, 3.2.

Regarding DKLALCHLFLTRKLQDLIKDVLRY, the protein stability index came to 2.62. The same measure, in the same setting: the same measure for DKLALCHLNLTRKLQDLIKDVLRY: 5.51; for DKLALCHLHLTRKLQDLIKDVLRY: 2.19.

Turning to DKLALCHLELTEKLQDLIKDVLRY, the protein stability index turned out to be 1.54. On the same count and under the same terms, the same measure for DKLALCHLELTNKLQDLIKDVLRY: 2.54; for DKLALCHLELTYKLQDLIKDVLRY: 2.6; for DKLALCHLELTWKLQDLIKDVLRY: 2.44. On the same count and under the same terms, the same measure for DKLALCHLELTSKLQDLIKDVLRY: 2.56; for DKLALCHLELTAKLQDLIKDVLRY: 1.42; for DKLALCHLELTRKIQDLIKDVLRY: 3.06.

For DKLALCHLELTRKCQDLIKDVLRY, the protein stability index was 3.78. As to DKLALCHLELTRKGQDLIKDVLRY, the protein stability index is 1.53. On the same count and under the same terms, the same measure for DKLALCHLELTRKNQDLIKDVLRY: 2.33.

In the case of DKLALCHLELTRKWQDLIKDVLRY, the protein stability index was determined as 1.53. For DKLALCHLELTRKHQDLIKDVLRY, the protein stability index came to 1.88.
